From patent US20050048073A1, “Methods of determining west nile virus epitopes and method of using the same” (priority 2001, published 2005) come the findings set out here.

The target of experiment [1] is HLA B*07 (human). The experiment in a line: T2B7 HLA stabilisation assay, flow cytometry, peptide at 200 ug/ml. (In general: Flow cytometry measures light scatter and fluorescence of single cells or particles in a stream.)
In experiment [2] the target is HLA B*07 (human). The experiment in a line: T2B7 HLA stabilisation assay, flow cytometry, 10/20/200 ug/ml, four assays. Conditions: for Binding results (total of four assays): scale: of 3 concentrations positive.

“And” between values parts separate entries of the source, which are not always exact repeats. Identical values can stand only once.

As to KPTGSASSLV [WNVB7 0015], in the experiment with HLA B*07 (human) [1], the Avg. Fold Inc. @ 200 (fold over background) was 1.7 and the Avg. MFI 200 amounted to 1070 MFI. In the experiment with HLA B*07 (human) [2], this molecule came in with a Binding number (binding score) of 6. The Binding results (total of four assays) in the experiment with HLA B*07 (human) [2] (in 2 assays) was 2 and 1.
As to IPAGFEPEML [WNVB7 0008], in the experiment with HLA B*07 (human) [1], the Avg. Fold Inc. @ 200 (fold over background) worked out at 1.9 and the Avg. MFI 200 was determined as 1210 MFI. Moreover, in the experiment with HLA B*07 (human) [2], the Binding number (binding score) worked out at 10 and the Binding results (total of four assays) (of 3 concentrations positive, in 1 assay) was determined as 1. For the same molecule, the Binding results (total of four assays) with HLA B*07 (human) [2] (in 3 assays) came to 3.
In the case of PRTNTILEDN [WNVB7 3415], in the experiment with HLA B*07 (human) [1], the Avg. Fold Inc. @ 200 (fold over background) was 0.9 and the Avg. MFI 200 was determined as 779 MFI. For the same molecule, the Binding number (binding score) with HLA B*07 (human) [2] came out at 0. The molecule also displayed a Binding results (total of four assays) with HLA B*07 (human) [2] (in 4 assays) of 0.
Take PFPESNSPIS [WNVB7 3411]: in the experiment with HLA B*07 (human) [1], the Avg. Fold Inc. @ 200 (fold over background) was determined as 1 and the Avg. MFI 200 was 627 MFI. Besides, in the experiment with HLA B*07 (human) [2], the Binding number (binding score) worked out at 1 and the Binding results (total of four assays) (of 3 concentrations positive, in 1 assay) was found to be 1.
As to RPRWIDARVY [WNVB7 0017], in the experiment with HLA B*07 (human) [1], the Avg. Fold Inc. @ 200 (fold over background) is 1.9 and the Avg. MFI 200 was 1710 MFI. In the experiment with HLA B*07 (human) [2], the Binding number (binding score) came to 11 and the Binding results (total of four assays) (of 3 concentrations positive, in 1 assay) is 2. This molecule also yielded a Binding results (total of four assays) in the experiment with HLA B*07 (human) [2] (in 3 assays) of 3.
As to NPMILAAGLI [WNVB7 0007], in the experiment with HLA B*07 (human) [1], the Avg. Fold Inc. @ 200 (fold over background) was 1.1 and the Avg. MFI 200 was determined as 945 MFI. The Binding number (binding score) with HLA B*07 (human) [2] came out at 2. Further, the Binding results (total of four assays) with HLA B*07 (human) [2] (in 2 assays) was found to be 1.
As to VPCRGQDELV [WNVB7 0010], in the experiment with HLA B*07 (human) [1], the Avg. Fold Inc. @ 200 (fold over background) is 1 and the Avg. MFI 200 worked out at 659 MFI. In addition, the Binding number (binding score) with HLA B*07 (human) [2] turned out to be 4. Further, the Binding results (total of four assays) in the experiment with HLA B*07 (human) [2] (in 2 assays) is 2.
On to GPGHEEPQLV [WNVB7 0011], for which, in the experiment with HLA B*07 (human) [1], the Avg. Fold Inc. @ 200 (fold over background) is 1 and the Avg. MFI 200 worked out at 849 MFI. In the experiment with HLA B*07 (human) [2], this molecule registered a Binding number (binding score) of 2 and a Binding results (total of four assays) (of 3 concentrations positive, in 1 assay) of 2.
Consider AAKKKGASLL [WNVB7 0006], for which, in the experiment with HLA B*07 (human) [1], the Avg. Fold Inc. @ 200 (fold over background) came to 1.2 and the Avg. MFI 200 stood at 708 MFI. The Binding number (binding score) in the experiment with HLA B*07 (human) [2] worked out at 4. This molecule also returned a Binding results (total of four assays) with HLA B*07 (human) [2] (in 4 assays) of 1.
Consider EPPEGVKYVL [WNVB7 0013], for which, in the experiment with HLA B*07 (human) [1], the Avg. Fold Inc. @ 200 (fold over background) was found to be 1.1 and the Avg. MFI 200 is 682 MFI. In the experiment with HLA B*07 (human) [2], the Binding number (binding score) stood at 6; the Binding results (total of four assays) (of 3 concentrations positive, in 1 assay) was 3 and 2 and 1.
Consider AVKDELNTLL [WNVB7 0004], for which, in the experiment with HLA B*07 (human) [1], the Avg. Fold Inc. @ 200 (fold over background) stood at 1 and the Avg. MFI 200 came to 842 MFI. Also, in the experiment with HLA B*07 (human) [2], the Binding number (binding score) was 0. This molecule yielded a Binding results (total of four assays) with HLA B*07 (human) [2] (in 4 assays) of 0.
Turning to TPAAPSYTLK [WNVB7 0009], in the experiment with HLA B*07 (human) [1], the Avg. Fold Inc. @ 200 (fold over background) is 1.5 and the Avg. MFI 200 is 954 MFI. Besides, in the experiment with HLA B*07 (human) [2], the Binding number (binding score) was 8; the Binding results (total of four assays) (of 3 concentrations positive, in 1 assay) is 3 and 1. For the same molecule, the Binding results (total of four assays) with HLA B*07 (human) [2] (in 2 assays) is 2.
